Data as given in patent US20060058253, “Methods to reprogram splice site selection in pre-messenger rnas” (published 2006).
Where a chain is given by its changes, count along the chain named.

Experiments:
Conditions in all cases: tags: GST
[1] = target: T1, UP1 (shortened hnRNP A1), GST fusion (UniProt P09651 P09651:1-196); assay: EMSA; best UP1 binder (printed X4-A1W)
[2] = target: T1, UP1 (shortened hnRNP A1), GST fusion; assay: EMSA; text prints X-M4A1W as non-binder, evidently X-M4A1M
[3] = target: T1, UP1 (shortened hnRNP A1), GST fusion; assay: EMSA
Procedure: (§1) A shortened version of recombinant hnRNP A1 (GST-UP1) was used for testing binding affinity. Each labeled oligo was incubated with increasing amounts of GST-UP1 (0.5 and 1 μg). The TS10 oligo is a telomeric DNA oligo of 60 nt containing nine high-affinity A1 binding sites. Complexes were fractionated in a 5% acrylamide gel. The position of the free oligos and complexes is shown. (C) Pre-mRNAs were incubated in a HeLa extract for 2 hours in the presence of increasing amounts of oligonucleotides (0.01, 0.02, 0.05, 0.1, 0.5 pmoles in 12.5 μl reaction). The RNA was extracted and fractionated on a denaturing 11% acrylamide gel. The position of the pre-mRNAs, splicing intermediates and products is indicated. (D) Based on the results obtained in panel C, the relative use of proximal and distal splicing was compiled, expressed as a ratio of percentages and plotted relative to the amount of oligo used. (E) Labeled pre-mRNAs were incubated as above in the presence of increasing amounts of oligonucleotides (0.01, 0.02, 0.05, 0.1, 0.5 pmoles in 12.5 μl reaction). The RNA was extracted and fractionated on a denaturing 11% acrylamide gel. The position of the pre-mRNAs, splicing intermediates and products is indicated. (F) Labeled pre-mRNAs were incubated with increasing amounts of oligonucleotides (0.01, 0.02, 0.05, 0.1, 0.5 pmoles in 12.5 μl reaction). […]

[4] = target: T1, UP1 (shortened hnRNP A1), GST fusion; assay: EMSA; remark: listed apart in the source
[5] = target: T1, UP1 (shortened hnRNP A1), GST fusion; assay: EMSA; best binder; 0.5 and 1 ug GST-UP1
Procedure: as §1

T1 sequence (P09651 1-196, one chain of several): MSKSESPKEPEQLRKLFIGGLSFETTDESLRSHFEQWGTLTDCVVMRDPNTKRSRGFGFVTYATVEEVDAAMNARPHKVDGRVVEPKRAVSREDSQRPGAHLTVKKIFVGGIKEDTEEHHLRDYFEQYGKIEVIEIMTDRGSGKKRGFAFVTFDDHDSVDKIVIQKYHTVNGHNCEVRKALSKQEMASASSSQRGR

B1: X-M4A1W (ssRNA)
RNA: UAUGAUAGGGACUUAGGGUGGCCGCCGUUCUCCUGGAUCC
modifications: 2'-OMe
B1: binds [1].

B2: X-M4A1M (ssRNA)
RNA: B1 RNA with G8C, G10C, G16C, G18C
modifications: 2'-OMe
B2: no binding [2].

B3: C5-M4 (ssRNA)
RNA: UACCACCGCCAAAGCCGCCU
B3: no binding [3].

B4: X-M4 (ssRNA)
RNA: GCCGCCGUUCUCCUGGAUCC
modifications: 2'-OMe
B4: no binding [4].

B5: C5-M4A1W (ssRNA)
RNA: UAUGAUAGGGACUUAGGGUGUACCACCGCCAAAGCCGCCU
B5: binds [5].

B6: C5-M4A1M (ssRNA)
RNA: B5 RNA with G8C, G10C, G16C, G18C
B6: no binding [3].

B7: X-5 (ssRNA)
RNA: UUCUUACCCAGCCGCCGUUC
modifications: 2'-OMe
B7: no binding [4].
